Assay results reported in patent US9260500B2, “Peptide and use thereof” (Takeda Pharmaceutical Company Limited, priority 2009, dated 2016).
Non-standard residues stand in square brackets, D forms with d. *: point of attachment. Phe(4-NH2) = Nc1ccc(C[C@H](N)C(=O)O)cc1; 4Pal = N[C@@H](Cc1ccncc1)C(=O)O; Cha = N[C@@H](CC1CCCCC1)C(=O)O; Isonicotinoyl = O=C(c1ccncc1)*; NMeS = CN[C@@H](CO)C(=O)O; hSer = N[C@@H](CCO)C(=O)O; Isobutyryl = CC(C)C(=O)*; Nle = CCCC[C@H](N)C(=O)O; Abu = CC[C@H](N)C(=O)O; Aib = CC(C)(N)C(=O)O; Bz = O=C(c1ccccc1)*; βAla = NCCC(=O)O

What was measured:
human Y2 receptor [1] = biological target: T1, human Y2 receptor (Homo sapiens, UniProt P49146); experiment: Receptor Binding Assay (RBA) for Human Y2, [125I]-PYY displacement on hY2R/CHO membrane fraction; conditions: IC50 of test compound/IC50 of PYY(3-36) (PYY(3-36) taken as 1)
T1 construct: expressed in transfected cells; membrane fraction
T1 sequence (P49146 1-381): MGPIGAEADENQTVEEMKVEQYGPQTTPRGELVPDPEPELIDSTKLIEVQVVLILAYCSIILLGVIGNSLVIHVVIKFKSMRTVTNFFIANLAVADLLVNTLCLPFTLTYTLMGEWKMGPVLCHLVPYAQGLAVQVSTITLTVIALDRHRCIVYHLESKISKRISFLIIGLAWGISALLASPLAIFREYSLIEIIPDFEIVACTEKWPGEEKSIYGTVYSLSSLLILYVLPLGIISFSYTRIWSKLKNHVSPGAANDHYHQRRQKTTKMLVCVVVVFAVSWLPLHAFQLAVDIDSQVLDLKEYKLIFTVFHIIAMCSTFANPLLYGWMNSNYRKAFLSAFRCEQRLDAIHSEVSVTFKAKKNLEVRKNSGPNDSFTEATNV
Summary of the method: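 hY2R stably expressed in CHO/dhfr− cells; membrane fraction prepared from cells disrupted in 10 mM NaHCO3, 5 mM EDTA buffer with protease inhibitors. Binding read as displacement of [125I]-PYY.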

human Y2 receptor [2] = biological target: T1, human Y2 receptor; experiment: Human Y2 Receptor G Protein Binding Assay (GBA), [35S]GTPγS; assay type: biochemical; conditions: EC50 of test compound/EC50 of PYY(3-36) (PYY3-36 taken as 1), hY2R/CHO membrane fraction
Summary of the method: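 Agonism measured as [35S]GTPγS binding, read by GF/C filtration and scintillation counting after 120 min at room temperature, using human Y2 membranes at 1 μg protein/mL in pH 7.4 Tris/MgCl2/NaCl/GDP buffer. Compound serially diluted 100 μM–1 nM; EC50 normalized to PYY(3-36) (ratio = compound/PYY).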

Substance	RBA IC50 Ratio (human Y2 receptor [1])	GBA EC50 Ratio (human Y2 receptor [2])
Ac-[D-Pro24, Hse26, Cha27,36, Aib28,31]-PYY(23-36) (Ac-S[dP]R[hSer][Cha][Aib]NL[Aib]TRQR[Cha]-NH2; SMILES CC(=O)N[C@@H](CO)C(=O)N1CCC[C@@H]1C(=O)N[C@@H](CCCNC(=N)N)C(=O)N[C@@H](CCO)C(=O)N[C@@H](CC1CCCCC1)C(=O)NC(C)(C)C(=O)N[C@@H](CC(N)=O)C(=O)N[C@@H](CC(C)C)C(=O)NC(C)(C)C(=O)N[C@H](C(=O)N[C@@H](CCCNC(=N)N)C(=O)N[C@@H](CCC(N)=O)C(=O)N[C@@H](CCCNC(=N)N)C(=O)N[C@@H](CC1CCCCC1)C(N)=O)[C@@H](C)O) [compound No. 128]	11	5.4
Isobutanoyl-[Abu26, Gly27, Cha28,36, Aib31]-PYY(25-36) (Isobutyryl-R[Abu]G[Cha]NL[Aib]TRQR[Cha]-NH2; SMILES CC[C@H](NC(=O)[C@H](CCCNC(=N)N)NC(=O)C(C)C)C(=O)NCC(=O)N[C@@H](CC1CCCCC1)C(=O)N[C@@H](CC(N)=O)C(=O)N[C@@H](CC(C)C)C(=O)NC(C)(C)C(=O)N[C@H](C(=O)N[C@@H](CCCNC(=N)N)C(=O)N[C@@H](CCC(N)=O)C(=O)N[C@@H](CCCNC(=N)N)C(=O)N[C@@H](CC1CCCCC1)C(N)=O)[C@@H](C)O) [compound No. 95]	70	49
Ac-[D-Pro24, Pya(4)26, Cha27,36, Aib28,31, Nle30]-PYY(23-36) (Ac-S[dP]R[4Pal][Cha][Aib]N[Nle][Aib]TRQR[Cha]-NH2; SMILES CCCC[C@H](NC(=O)[C@H](CC(N)=O)NC(=O)C(C)(C)NC(=O)[C@H](CC1CCCCC1)NC(=O)[C@H](Cc1ccncc1)NC(=O)[C@H](CCCNC(=N)N)NC(=O)[C@H]1CCCN1C(=O)[C@H](CO)NC(C)=O)C(=O)NC(C)(C)C(=O)N[C@H](C(=O)N[C@@H](CCCNC(=N)N)C(=O)N[C@@H](CCC(N)=O)C(=O)N[C@@H](CCCNC(=N)N)C(=O)N[C@@H](CC1CCCCC1)C(N)=O)[C@@H](C)O) [compound No. 267]	0.96	1.4
Ac-[D-Pro24, Pya(4)26, Cha27,36, Aib28,31, Trp30]-PYY(23-36) (Ac-S[dP]R[4Pal][Cha][Aib]NW[Aib]TRQR[Cha]-NH2; SMILES CC(=O)N[C@@H](CO)C(=O)N1CCC[C@@H]1C(=O)N[C@@H](CCCNC(=N)N)C(=O)N[C@@H](Cc1ccncc1)C(=O)N[C@@H](CC1CCCCC1)C(=O)NC(C)(C)C(=O)N[C@@H](CC(N)=O)C(=O)N[C@@H](Cc1c[nH]c2ccccc12)C(=O)NC(C)(C)C(=O)N[C@H](C(=O)N[C@@H](CCCNC(=N)N)C(=O)N[C@@H](CCC(N)=O)C(=O)N[C@@H](CCCNC(=N)N)C(=O)N[C@@H](CC1CCCCC1)C(N)=O)[C@@H](C)O) [compound No. 205]	2.5	2.4
Ac-[D-Pro24, Pya(4)26, Cha27,36, Aib28,31, Hse30]-PYY(23-36) (Ac-S[dP]R[4Pal][Cha][Aib]N[hSer][Aib]TRQR[Cha]-NH2; SMILES CC(=O)N[C@@H](CO)C(=O)N1CCC[C@@H]1C(=O)N[C@@H](CCCNC(=N)N)C(=O)N[C@@H](Cc1ccncc1)C(=O)N[C@@H](CC1CCCCC1)C(=O)NC(C)(C)C(=O)N[C@@H](CC(N)=O)C(=O)N[C@@H](CCO)C(=O)NC(C)(C)C(=O)N[C@H](C(=O)N[C@@H](CCCNC(=N)N)C(=O)N[C@@H](CCC(N)=O)C(=O)N[C@@H](CCCNC(=N)N)C(=O)N[C@@H](CC1CCCCC1)C(N)=O)[C@@H](C)O) [compound No. 265]	5.8	5.7
Benzoyl-[Cha27,36, Ile28,31, Phe(4NH2)30]-PYY(25-36) (Bz-RH[Cha]IN[Phe(4-NH2)]ITRQR[Cha]-NH2; SMILES CC[C@H](C)[C@H](NC(=O)[C@H](CC1CCCCC1)NC(=O)[C@H](Cc1c[nH]cn1)NC(=O)[C@H](CCCNC(=N)N)NC(=O)c1ccccc1)C(=O)N[C@@H](CC(N)=O)C(=O)N[C@@H](Cc1ccc(N)cc1)C(=O)N[C@H](C(=O)N[C@H](C(=O)N[C@@H](CCCNC(=N)N)C(=O)N[C@@H](CCC(N)=O)C(=O)N[C@@H](CCCNC(=N)N)C(=O)N[C@@H](CC1CCCCC1)C(N)=O)[C@@H](C)O)[C@@H](C)CC) [compound No. 73]	12	6.6
Isobutanoyl-[Abu26, Cha27,28,36, His30, Aib31]-PYY(25-36) (Isobutyryl-R[Abu][Cha][Cha]NH[Aib]TRQR[Cha]-NH2; SMILES CC[C@H](NC(=O)[C@H](CCCNC(=N)N)NC(=O)C(C)C)C(=O)N[C@@H](CC1CCCCC1)C(=O)N[C@@H](CC1CCCCC1)C(=O)N[C@@H](CC(N)=O)C(=O)N[C@@H](Cc1c[nH]cn1)C(=O)NC(C)(C)C(=O)N[C@H](C(=O)N[C@@H](CCCNC(=N)N)C(=O)N[C@@H](CCC(N)=O)C(=O)N[C@@H](CCCNC(=N)N)C(=O)N[C@@H](CC1CCCCC1)C(N)=O)[C@@H](C)O) [compound No. 92]	22	20

Results, then the substance that gave them:

RBA IC50 Ratio (human Y2 receptor [1])	GBA EC50 Ratio (human Y2 receptor [2])	Substance
8.1	5.7	4-Pyridinecarbonyl-[Glu23, D-Pro24, Nle25, Pya(4)26, Cha27,36, Aib28,31, Lys30]-PYY(23-36) (Isonicotinoyl-E[dP][Nle][4Pal][Cha][Aib]NK[Aib]TRQR[Cha]-NH2; SMILES CCCC[C@H](NC(=O)[C@H]1CCCN1C(=O)[C@H](CCC(=O)O)NC(=O)c1ccncc1)C(=O)N[C@@H](Cc1ccncc1)C(=O)N[C@@H](CC1CCCCC1)C(=O)NC(C)(C)C(=O)N[C@@H](CC(N)=O)C(=O)N[C@@H](CCCCN)C(=O)NC(C)(C)C(=O)N[C@H](C(=O)N[C@@H](CCCNC(=N)N)C(=O)N[C@@H](CCC(N)=O)C(=O)N[C@@H](CCCNC(=N)N)C(=O)N[C@@H](CC1CCCCC1)C(N)=O)[C@@H](C)O) [compound No. 228]
7.4	3.9	Ac-[Glu23, βAla24, Pya(4)26, Cha27,36, Aib28,31, Lys30]-PYY(23-36) (Ac-E[βAla]R[4Pal][Cha][Aib]NK[Aib]TRQR[Cha]-NH2; SMILES CC(=O)N[C@@H](CCC(=O)O)C(=O)NCCC(=O)N[C@@H](CCCNC(=N)N)C(=O)N[C@@H](Cc1ccncc1)C(=O)N[C@@H](CC1CCCCC1)C(=O)NC(C)(C)C(=O)N[C@@H](CC(N)=O)C(=O)N[C@@H](CCCCN)C(=O)NC(C)(C)C(=O)N[C@H](C(=O)N[C@@H](CCCNC(=N)N)C(=O)N[C@@H](CCC(N)=O)C(=O)N[C@@H](CCCNC(=N)N)C(=O)N[C@@H](CC1CCCCC1)C(N)=O)[C@@H](C)O) [compound No. 223]
1.3	0.9	Ac-[Gln23, D-Pro24, Pya(4)26, Cha27,36, Aib28,31, Lys30]-PYY(23-36) (Ac-Q[dP]R[4Pal][Cha][Aib]NK[Aib]TRQR[Cha]-NH2; SMILES CC(=O)N[C@@H](CCC(N)=O)C(=O)N1CCC[C@@H]1C(=O)N[C@@H](CCCNC(=N)N)C(=O)N[C@@H](Cc1ccncc1)C(=O)N[C@@H](CC1CCCCC1)C(=O)NC(C)(C)C(=O)N[C@@H](CC(N)=O)C(=O)N[C@@H](CCCCN)C(=O)NC(C)(C)C(=O)N[C@H](C(=O)N[C@@H](CCCNC(=N)N)C(=O)N[C@@H](CCC(N)=O)C(=O)N[C@@H](CCCNC(=N)N)C(=O)N[C@@H](CC1CCCCC1)C(N)=O)[C@@H](C)O) [compound No. 210]
12	7.8	Ac-[MeSer23, D-Pro24, Cha27,28,36, Aib31]-PYY(22-36) (Ac-A[NMeS][dP]RH[Cha][Cha]NL[Aib]TRQR[Cha]-NH2; SMILES CC(=O)N[C@@H](C)C(=O)N(C)[C@@H](CO)C(=O)N1CCC[C@@H]1C(=O)N[C@@H](CCCNC(=N)N)C(=O)N[C@@H](Cc1c[nH]cn1)C(=O)N[C@@H](CC1CCCCC1)C(=O)N[C@@H](CC1CCCCC1)C(=O)N[C@@H](CC(N)=O)C(=O)N[C@@H](CC(C)C)C(=O)NC(C)(C)C(=O)N[C@H](C(=O)N[C@@H](CCCNC(=N)N)C(=O)N[C@@H](CCC(N)=O)C(=O)N[C@@H](CCCNC(=N)N)C(=O)N[C@@H](CC1CCCCC1)C(N)=O)[C@@H](C)O) [compound No. 129]
1.1	1.0	Ac-[Lys22,30, D-Pro24, Pya(4)26, Cha27,36, Aib28,31]-PYY(22-36) (Ac-KS[dP]R[4Pal][Cha][Aib]NK[Aib]TRQR[Cha]-NH2; SMILES CC(=O)N[C@@H](CCCCN)C(=O)N[C@@H](CO)C(=O)N1CCC[C@@H]1C(=O)N[C@@H](CCCNC(=N)N)C(=O)N[C@@H](Cc1ccncc1)C(=O)N[C@@H](CC1CCCCC1)C(=O)NC(C)(C)C(=O)N[C@@H](CC(N)=O)C(=O)N[C@@H](CCCCN)C(=O)NC(C)(C)C(=O)N[C@H](C(=O)N[C@@H](CCCNC(=N)N)C(=O)N[C@@H](CCC(N)=O)C(=O)N[C@@H](CCCNC(=N)N)C(=O)N[C@@H](CC1CCCCC1)C(N)=O)[C@@H](C)O) [compound No. 272]
